# Laboratory results from patent US20200109169A1 (BGI SHENZHEN, published 2020).
# Target: T1, HLA-A0201 on the surface of T2 cells (human)
# T1 construct: MHC class I molecule on T2 cells; surface HLA-A*02:01 was read with an anti-HLA-A*02:01 FITC monoclonal antibody after overnight loading with peptide
# Experiment: T2 cell peptide loading, flow cytometry with anti-HLA-A*02:01 FITC antibody, peptide 100 uM
# Method: After centrifugation at 200 g for 5 minutes for cell collection, the collected cells were washed with phosphate buffer saline (PBS) buffer twice, before incubated with anti-HLA-A*02:01 FITC monoclonal antibody at 4° C. for 30 minutes. The mean fluorescence intensity of cells was then detected and analyzed by the flow cytometry (BD FACSJazz™)) and its software.
Binder,FI (fluorescence index),Mean fluorescence intensity
PLAFLIFNI (Made by solid phase synthesis) [wild-type polypeptide PLAFLIFNI (SEQ ID NO: 7)],1.63,650
"TLAFLIFNI (Made by solid phase synthesis, purity >90% by HPLC) [mutant polypeptide TLAFLIFNI (SEQ ID NO: 1)]",1.6,643
TLAFLIFNL (Made by solid phase synthesis) [mutant polypeptide's variant TLAFLIFNL (SEQ ID NO: 4)],1.49,615
TLAFLIFNV (Made by solid phase synthesis) [mutant polypeptide's variant TLAFLIFNV (SEQ ID NO: 3)],1.51,620
TMAFLIFNI (Made by solid phase synthesis) [mutant polypeptide's variant TMAFLIFNI (SEQ ID NO: 2)],1.67,660
TMAFLIFNL (Made by solid phase synthesis) [mutant polypeptide's variant TMAFLIFNL (SEQ ID NO: 5)],1.79,690
TMAFLIFNV (Made by solid phase synthesis) [mutant polypeptide's variant TMAFLIFNV (SEQ ID NO: 6)],1.74,677
